Test results as given in paper doi:10.1101/2020.10.14.338756.

Key:
[1] = target: BPTI_A16S, displayed on yeast (bovine)
[2] = target: BPTI_K15A, displayed on yeast (bovine)
[3] = target: BPTI_K15R, displayed on yeast (bovine)

Substance: Bovine trypsin (enzyme)
- ΔΔG bind against BPTIWT [1]: 18.8 kJ/mol
- ΔΔG bind against BPTIWT [2]: 46.4 kJ/mol
- ΔΔG bind against BPTIWT [3]: -5.86 kJ/mol
